Values quoted from earlier work, collected in PMC4030972.

Target: cholera toxin A1 subunit CtxA1 (Vibrio cholerae) (UniProt P01555)
UniProt P01555, sequence (P01555 19-212): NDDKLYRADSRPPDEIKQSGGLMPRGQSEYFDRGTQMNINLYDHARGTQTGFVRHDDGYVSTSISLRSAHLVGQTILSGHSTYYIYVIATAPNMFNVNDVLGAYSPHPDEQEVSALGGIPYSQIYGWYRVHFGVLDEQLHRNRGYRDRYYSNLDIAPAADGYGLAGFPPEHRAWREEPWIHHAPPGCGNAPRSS

Hsp90 (from UniProt P08238)
Kd: 7 nM
